Here are results for 5 molecules from paper PMC10293810, “Multiple RNA- and DNA-binding proteins exhibit direct transfer of polynucleotides with implications for target-site search”.

Data set [1] deals with hnRNP-U RNA-binding domain (human, UniProt Q00839 673-825). As to the kind of experiment: fluorescence polarization; 25 C; apparent Kd; FP with 5 nM ligand at 25 C (some FPCD at 4 C); buffer for MS2-CP (BB6): 100 mM Tris pH 7.5, 10 mM MgCl2, 80 mM KCl, 0.1 mg/mL BSA; other buffers not in material. Conditions: protein: recombinant; tags: N-terminal His-MBP fusion; label: fluorophore, 3' by name; G-quadruplex.
hnRNP-U RNA-binding domain, sequence (Q00839 673-825): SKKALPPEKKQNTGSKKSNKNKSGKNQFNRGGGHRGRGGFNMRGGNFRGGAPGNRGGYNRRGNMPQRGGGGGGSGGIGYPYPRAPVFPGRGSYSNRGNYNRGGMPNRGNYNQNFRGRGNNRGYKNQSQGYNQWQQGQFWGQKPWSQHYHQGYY

The target in the next data set is T1, TREX1 catalytic core (murine, UniProt Q91XB0 1-242).
T1 sequence: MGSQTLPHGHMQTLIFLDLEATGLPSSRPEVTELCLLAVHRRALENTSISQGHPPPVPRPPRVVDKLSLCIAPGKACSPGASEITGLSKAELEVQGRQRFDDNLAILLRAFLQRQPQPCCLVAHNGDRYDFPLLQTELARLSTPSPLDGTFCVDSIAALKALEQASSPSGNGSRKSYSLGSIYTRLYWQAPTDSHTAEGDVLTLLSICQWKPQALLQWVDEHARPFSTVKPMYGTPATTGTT
The data set is described as above. The note with it: protein: recombinant; tags: MBP fusion, cleaved by protease; chain copies: 2; label: 5' fluorophore (FP).

Another data set deals with T2, TREX1 R174A,K175A (murine, UniProt Q91XB0 1-242, R174A;K175A).
T2 sequence: T1 sequence with R174A, K175A
The description is as above. The note with it: protein: recombinant; tags: MBP fusion, cleaved by protease (similar to WT); chain copies: 2; label: 5' fluorophore (FP).

Data set [2] has as its target T3, MS2 coat protein V75E,A81G (MS2 bacteriophage, UniProt P03612 2-130, V76E;A82G). The data set is described as follows: competition; displaces [F]RNA2MS2; FP with 5 nM ligand at 25 C (some FPCD at 4 C); buffer for MS2-CP (BB6): 100 mM Tris pH 7.5, 10 mM MgCl2, 80 mM KCl, 0.1 mg/mL BSA; other buffers not in material. Conditions: protein: recombinant; tags: HisMBP fusion with 3C protease site; chain copies: 2; hairpin.

The target in data set [3] is T3, MS2 coat protein V75E,A81G. The data set is described as follows: fluorescence polarization; 25 C; apparent Kd, ligand 5 nM >= Kd so true Kd may be lower; FP with 5 nM ligand at 25 C (some FPCD at 4 C); buffer for MS2-CP (BB6): 100 mM Tris pH 7.5, 10 mM MgCl2, 80 mM KCl, 0.1 mg/mL BSA; other buffers not in material. Conditions: protein: recombinant; tags: HisMBP fusion with 3C protease site; chain copies: 2; label: fluorophore; hairpin. (In general: In fluorescence polarisation assays a small probe gives low polarisation when free and higher when bound to something large.)

The target of the next data set is T4, FBF-2 RNA-binding domain (Caenorhabditis elegans, UniProt Q09312 164-575).
T4 sequence: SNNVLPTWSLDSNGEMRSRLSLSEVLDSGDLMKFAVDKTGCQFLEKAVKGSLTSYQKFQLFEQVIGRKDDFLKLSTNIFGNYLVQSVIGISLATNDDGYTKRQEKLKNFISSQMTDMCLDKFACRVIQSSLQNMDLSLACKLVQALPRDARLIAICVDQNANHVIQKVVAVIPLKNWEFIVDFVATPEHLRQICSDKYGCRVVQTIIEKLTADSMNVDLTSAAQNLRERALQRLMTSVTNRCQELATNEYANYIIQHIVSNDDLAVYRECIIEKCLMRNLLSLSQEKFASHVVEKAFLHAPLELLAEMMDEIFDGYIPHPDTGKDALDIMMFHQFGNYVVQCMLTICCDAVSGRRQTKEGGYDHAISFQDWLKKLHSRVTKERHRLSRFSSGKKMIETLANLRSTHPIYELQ
As to the kind of experiment: fluorescence polarization; 25 C; apparent Kd; FP with 5 nM ligand at 25 C (some FPCD at 4 C); buffer for MS2-CP (BB6): 100 mM Tris pH 7.5, 10 mM MgCl2, 80 mM KCl, 0.1 mg/mL BSA; other buffers not in material. Conditions: protein: recombinant; label: 5' 6-FAM.

Positions count from the first letter of the chain named.

B1: r(G3A2)4[F] (structured_RNA)
RNA: GGGAAGGGAAGGGAAGGGAA
Regarding B1, in data set [1], the Kd was 15 ± 4.8 nM.

B2: [F]d(N)5 (ssDNA)
DNA: GACTG
Turning to B2, the Kd in the data set with TREX1 catalytic core came to 8.9 ± 3.8 nM; in the data set with TREX1 R174A,K175A, 46 ± 16 nM.

B3: RNA1MS2 (structured_RNA)
RNA: GGGACUGAGGAUCACCCAGUCUAU
With B3, in data set [2], the binding result is given as “binds”.

B4: [F]RNA2MS2 (structured_RNA)
RNA: GGACAUGAGGAUCACCCAUGU
In the case of B4, in data set [3], the Kd came to 2.9 ± 0.62 nM.

B5: [F]RNAPUF (ssRNA)
RNA: AACAUGUGCCAUA
On to B5, for which the Kd with FBF-2 RNA-binding domain is 50 ± 9.2 nM.
